Reference: PMC9426602, “The Native Orthobunyavirus Ribonucleoprotein Possesses a Helical Architecture” (mBio, 2022)

Target: the molecule itself
Experiment: negative staining EM; purified native RNPs, untreated, in reduced-salt TNE (25 mM NaCl), 1% uranyl acetate

B1: Bunyamwera virus (BUNV) nucleocapsid protein (NP), as it stands in native ribonucleoproteins (RNPs) purified from virions (natural protein)
chain: MIELEFHDVAANTSSTFDPEVAYANFKRVHTTGLSYDHIRIFYIKGREIKTSLAKRSEWEVTLNLGGWKITVYNTNFPGNRNNPVPDDGLTLHRLSGFLARYLLEKMLKVSEPEKLIIKSKIINPLAEKNGITWNDGEEVYLSFFPGSEMFLGTFRFYPLAIGIYKVQRKEMEPKYLEKTMRQRYMGLEAATWTVSKLTEVQSALTVVSSLGWKKTNVSAAARDFLAKFGINM
notes: the atomic model started from the BUNV NP crystal structure PDB 3ZLA; Many copies of NP form a helical filament around each RNA segment (about 3.4 NPs per turn); the number of copies depends on the segment; The viral RNA is part of the assembly; also called BUNV NP; source: native RNPs from BUNV virions grown in BHK-21 cells; virions disrupted by freeze/thaw, RNPs purified on a 10 to 25% OptiPrep …
  binding result: binds
